This passage reports koff results from PMC9867944 (2023).

For the test, the target named is human PD-1 protein (Acro biosystems) (human, UniProt Q15116 25-170). In words: SPR.

For orientation: koff means the rate constant with which the complex falls apart.

Chain of human PD-1 protein (Acro biosystems) (Q15116 25-170): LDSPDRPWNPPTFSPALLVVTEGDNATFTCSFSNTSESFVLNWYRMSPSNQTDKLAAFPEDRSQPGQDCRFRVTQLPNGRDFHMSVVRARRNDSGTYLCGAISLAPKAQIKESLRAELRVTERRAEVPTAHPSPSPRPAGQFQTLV

B1: anti-PD-1 Nb C12-Fc (Fc fusion)
chain: QVQLQELGETRCRHGGSLRLSCKVSGYTQRSYCLGWLRQAPGNEREAVAVLQHSGNFRHYADSVQGRFVISQDYTDNTVYLAMNNLKSEDAAMYYCAAVGLRVSQFNYWGQGTQVTVSS
The molecule B1 had a dissociation rate constant (koff) of 0.00178 s⁻¹.
